# According to PMC7022936:
# System: DcGliZ full-length (Dichotomomyces cejpii FS110)
# Assay: SPR
# Details: SPR: HBS-EP (10 mM HEPES pH 7.4, 150 mM NaCl, 0.005% P20), 22 C; EMSA: Beyotime chemiluminescent kit, 5 uL of 1 uM probe + 2 uL protein (~1 mg/mL in Methods …)
row,Sequence,Kd [nM]
1,GTTTCTATGTCTATATCGGAGGAGTGATCAACGGCGTCCGAAAATTCGGCCCGCGGCTGTCTTAGGGCTGGCCTGCAGGTGTAGGGTTCATTATGAAAGACTGGTAGTATTATGCTGCTATTTAGTCAAAAGCAGAAGAACAGTTTGTCTTTAGACCTTGAATAGATATCTGTCAAGACAAGAGCCAAGAAAGTCCCATCACCATGGCAGACATGACCGAACGACCTTCTGATCTCGTTGTGGACAGGCTGGTTCTCTTCG (double strand) [pG (gliG promoter)],160
2,TAGTCTATCACTGAACAGTTGAATGAATTTGTTTCAAGACAGCTAAAGCTCCATTCTAGCCGTACGTACTGGTAGTTCTCCGCATAGAAACATATATCTCTCTGCTTGGTCAAAGTCAGGTATCGCCGACAAGTCTTAATATCTGCAGAGTATTCGGTGACCGAAATAGGGTCGGAATATAAGCCATATATATCACTGTTCTGGAAATCAAGAAAATATAACAGTTGAATACTCACTTTTCTAACATTCCAACAATCAGTTGAGCTCGATCACA (double strand) [pM (gliM promoter)],162
3,TTACTTCTTGGTCTACTCCGTATTGTGAATCGAAATGAGATAGAAGTATAGTTCTACTGTACTGGTTTCTATCTGCTTAAAATAAATACAATTGTGCCTTCTATACAGATCAGTATGTAGAATGAACTGATAGACCTCCAGGAGGTTCTTCCTCCGAGCCTGCAACGCCCAAGAGGAGAACTGTGCATACGCCAGGACAGATTTTCGGCCTCCGAAAAGGACTGAGGATAGTATCTGCCATGTTTATATATAACTGAGGGAATAGACCAGGTAGATAACAGCAAAATCAACTAAACATCATC (double strand) [pN (gliN promoter)],104
